In PMC10397247:

How the values were obtained:
Assay in all cases: two-hybrid library CCNG1;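 note: natural log of median RNA to DNA barcode read ratio; higher means stronger binding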
[1] = target: T1, P3bH1
T1 chain: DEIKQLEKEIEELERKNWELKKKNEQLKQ

[2] = target: T2, P6bH1
T2 chain: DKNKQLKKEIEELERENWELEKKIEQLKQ

[3] = target: T3, P7bH1
T3 chain: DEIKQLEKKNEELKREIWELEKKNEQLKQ

[4] = target: T4, P9bH1
T4 chain: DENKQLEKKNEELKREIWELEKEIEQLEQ

[5] = target: T5, P2bH1
T5 chain: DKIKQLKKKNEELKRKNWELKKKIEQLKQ

[6] = target: T6, P8bH1
T6 chain: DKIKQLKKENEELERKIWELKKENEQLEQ

[7] = target: T7, P5bH1
T7 chain: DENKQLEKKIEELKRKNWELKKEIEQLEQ

[8] = target: T8, P4bH1
T8 chain: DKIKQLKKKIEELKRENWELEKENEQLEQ

interaction score [1]: -0.234
interaction score [2]: -1.16
interaction score [3]: 0.231
interaction score [4]: 0.693
interaction score [5]: -0.432
interaction score [6]: -0.331
interaction score [7]: -0.796
interaction score [8]: -0.137
Binder: DKIKQLKKKNEELKRKNWELKKKIEQLKQ [P2bH1]
